Test: soluble on expression in E. coli; label from the status in PepcDB or PDB records

| Sequence | soluble on expression in E. coli |
| --- | --- |
| MRSDTSVEPEGANFIAEFFGHRVYPEVVSTEAARNDQATGTCPFLTAAKLVETSCVKAETSRGVCVVNTAVDNERYDWLVCPNRALDPLFMSAASRKLFGYGPTEPLQFIAAPTLADQAVRDGIREWLDRGVHVVAYFQEKLGGELSISKTDSSPEFSFDWTLAEVESIYPVPKIKRYGVLEIQTMDFHGSYKHAVGAIDIALVEGIDFHGWLPTPAGRAALSKKMEGPNLSNVFKRTFYQMAYKFALSGHQRCAGTGFAIPQSVWKSWLRHLANPTLIDNGDGTFSLGDTRNDSENAWIFVFELDPDTDASPRPLAPHLEIRVNVDTLIDLALRESPRAALGPSGPVATFTDKVEARMLRFWPKTRRRRSTTPGGQRGLFDA | soluble |
| MGSDKIHHHHHHMEYTSLIFPGDKIDIFASGLSDNSTSYKSSFSDKLTDSMWEITMPVDSGRVVLFQLGTQFDFIIYTQNKTILKSSAIVRQRYRKENMYFLAIELINNLEKIQRRQFFRLPCTIDMDFYEVRYDDKAESELEFCKKMYKNHAINSKNMNTVKSVILDISGGGIRFSLSTPLEEGTYFMAQFSLALEECTQQFNIVCKVINCTQSLDYADRYFARSKFIFDRMTEREKIVRFVFEEERRIRRREME | not soluble |
| GIDPFTMAAYTIVKEEESPIAPHRLFKALVLERHQVLVKAQPHVFKSGEIIEGDGGVGTVTKITFVDGHPLTYMLHKFDEIDAANFYCKYTLFEGDVLRDNIEKVVYEVKLEAVGGGSKGKITVTYHPKPGCTVNEEEVKIGEKKAYEFYKQVEEYLAANPEVFA | soluble |
| MARYYVLDLSEDFRRELRETLAEMVNPVEVHVFLSKSGCETCEDTLRLMKLFEEESPTRNGGKLLKLNVYYRESDSDKFSEFKVERVPTVAFLGGEVRWTGIPAGEEIRALVEVIMRLSEDESGLEDATKEALKSLKGRVHIETIITPSCPYCPYAVLLAHMFAYEAWKQGNPVILSEAVEAYENPDIADKYGVMSVPSIAINGYLVFVGVPYEEDFLDYVKSAAEGRLTVKGPIRAGEAEEL | soluble |
| ENIEVHMLNKGAEGAMVFEPAYIKANPGDTVTFIPVDKGHNVESIKDMIPEGAEKFKSKINENYVLTVTQPGAYLVKCTIHYAMGMIALIAVGDSPANLDQIVSAKKPKIVQERLEKVIASAK | soluble |
| MSLKKSFLLLPLSLVVLSACTSNFPAPISDADGNFSPSVIQSVNGSNVGGAWQPEIQKNSLPTTGNMVTPQQNFQPINQQPTMPTAPAQPAFQPSPKTVVSAPTVQTKTVTKTVADCVDGQHINIPRNPNTNAPDYSKISKGSYKGNTYKVNKGDTMFLIAYLAGIDVKELAALNNLSEPYNLSLGQVLKISNCDIKTVTTTVSVKQPAVTASTATPVKPAVTYTPGANGTQIGSDGTIIGPIKSEAGTSPSVPVATSSTQVTSSVNNANSTPINSNVVAPIASNVVWQWPTSGNIIQGFSSTDGGNKGIDISGSRGQAVKAAAAGRIVYAGNALRGYGNLIIIKHNDDFLSAYAHNDKILVADQQEVKAGQDIAKMGSSGTNTVKLHFEIRYKGKSVDPVRYLPRHEGHHHHHH | not soluble |
| GPNSGTLALLLDEGSKQLPQAIIIGVKKGGTRALLEFLRVHPDVRAVGAEPHFFDRSYDKGLAWYRDLMPRTLDGQITMEKTPSYFVTREAPARISAMSKDTKLIVVVRDPVTRAISDYTQTLSKRPDIPTFESLTFKNRTAGLIDTSWSAIQIGIYAKHLEHWLRHFPIRQMLFVSGERLISDPAGELGRVQDFLGLKRIITDKHFYFNKTKGFPCLKKAEGSSRPHCLGKTKGRTHPEIDREVVRRLREFYRPFNLKFYQMTGHDFGWDG | soluble |
| MGSDKIHHHHHHMPLKTPPCVRRHTTGHETCSAQRSEHDGRRHLFPHDARALEIQERDVTHPIVSSEVPVEYINLPEPQTEGGMPLMTALHKRRSVRSFAQRPLDEALLSTLLWAAFGINRPDTGLRTAPSARNWQEIDVYVAMPDGLYALEPAAWRLRLVTGEDLRAATGLQDYVSTAPLDLVYVSRLSKLDETDKPMRQFYTALDTGYISQNVYLFCAASGLATVARGLLDRRALAKAMRLDPDQRVVLAQSVGFPA | not soluble |
| MARIRARGSACPSQCSCSGTTVDCSGKSLASVPTGIPTTTQVLYLYDNQITKLEPGVFDRLTQLTRLDLDNNQLTVLPAGVFDKLTQLTQLSLNDNQLKSIPRGAFDNLKSLTHIWLLNNPWDCACSDILYLSRWISQHPGLVFGYLNLDPDSARCSGTNTPVRAVTEASTSPSKCPG | soluble |
| MSQRVSYYEIAPEGMKIMMDMEKYTKQSSINRTTRELIKIRVSQMNGCAFCIDMHTSDARKMGETEQRIYCLHAWNECDFYSPEEKAALELSEHITLIPSKRVPDELYHRVREHYDEEQYVDLVLIINQINSWNRISIAMGNRAASK | soluble |
